In patent publication US20070105924A1, “Vigabatrin bioisoteres and related methods of use” (priority 2005, published 2007):

How the values were obtained:
Assay in all cases: purified protein, by the assay type
Details in all cases: other: substrate of GABA-AT, 1 h incubation, 25° C., pH 8.5
NCCCc1nnn[nH]1 = tested on: NCCCc1nnn[nH]1
Procedure: (§1) After incubation (48 h for the preliminary test, 1 h for determination of kinetic constants), the mixture was quenched with trichloroacetic acid. The resulting [^14C]glutamate was isolated by cation-exchange chromatography, and the DPM (disintegration per minute) value was measured. Controls consisted of the entire incubation mixture with substrates omitted. The substrate kinetic constants kcat and Km were determined by the method of Hanes and Woolf, as referenced above.

NCCCCc1nnn[nH]1 = tested on: NCCCCc1nnn[nH]1
Procedure: as §1

NCCc1nnn[nH]1 = tested on: NCCc1nnn[nH]1
Procedure: as §1
NCCCC(=O)O = tested on: NCCCC(=O)O

Substance GABA-AT (Sus scrofa) has a Km (NCCCc1nnn[nH]1) of 2400 µM, a kcat (NCCCc1nnn[nH]1) of 0.477 s⁻¹ and a kcat/Km (NCCCc1nnn[nH]1) of 195 M⁻¹ s⁻¹. The Km (NCCCCc1nnn[nH]1) was 8000 µM, the kcat (NCCCCc1nnn[nH]1) was 0.693 s⁻¹ and the kcat/Km (NCCCCc1nnn[nH]1) was 86.7 M⁻¹ s⁻¹. For the same substance, the Km (NCCc1nnn[nH]1) was 2300 µM, the kcat (NCCc1nnn[nH]1) was 0.265 s⁻¹ and the kcat/Km (NCCc1nnn[nH]1) was 115 M⁻¹ s⁻¹. The Km (NCCCC(=O)O) was 2400 µM, the kcat (NCCCC(=O)O) was 0.817 s⁻¹ and the kcat/Km (NCCCC(=O)O) was 340 M⁻¹ s⁻¹.
